From patent US20070172504A1, “In vivo cell surface engineering” (University of Lousville Research Foundation, Inc., priority 2005, published 2007)

Assays:
splenocytes = test: in vivo kinetics of protein display on ex vivo engineered splenocytes; details: 15 μM biotin, 100 ng/1×10^6 cells, injected intravenously into syngeneic animals
Experimental: The kinetics of persistence of the exogenous proteins on the cell surface was determined in vivo. Splenocytes were modified with biotin (15 μM), engineered with an CD80-CSA fusion protein (100 ng/1×10^6 cells), labeled with CFSE, and injected intravenously into syngeneic animals. Splenocytes and LN cells were harvested various days post-injection and analyzed for the presence of fusion protein on CFSE positive cells. CD80-CSA persisted on the surface of splenocytes with a t1/2 of >10 days. FIG. 9.

LLC cells = test: ex vivo co-display of fusion proteins on biotinylated LLC cells (flow cytometry); type: cell-based; details: 15 μM biotin, 100 ng/protein/10^6 cells
Experimental: (§1) Engineering of cell surfaces. LLC or A20 tumor cells are washed with ice-cold PBS and incubated at 2×10^7 cells/ml in PBS, pH 8.0, containing 5-15 μM EZ-Link™ Sulfo-NHS-LC-Biotin (Pierce) at room temperature for 30 min. Cells are washed extensively and incubated at 1×10^6 cell/ml with 100 ng/purified immune co-stimulatory-streptavidin fusion protein for 45 min at 4° C. After extensive washing with PBS, cells are processed for flow cytometric analysis to assess the cells engineered with the immune co-stimulatory fusion proteins. Such cells also are used for functional studies in vitro. Cells are irradiated at 100 Gy prior to being used in in vitro studies.
One million LLC cells were biotinylated using 15 μM of EZ-Link™ Sulfo-NHS-LC-Biotin derivative from Pierce Biotechnology, Inc. (Rockford, Ill.) in PBS at room temperature for 20-30 minutes. Biotin was then removed by centrifugation, cells were washed once, transferred into a clean second tube, washed 1-2 more times, and then contacted with CD80-CSA and 4-1BBL-CSA fusion proteins at 100 ng/protein/10^6 cells in PBS for 30-45 minutes on ice. Cells were then washed extensively and used for staining with saturating concentrations of various fluorochrome-conjugated antibodies to CD80 and 4-1BBL in PBS by incubation on ice for 30-45 minutes. Cells were then washed extensively with FACS medium and used for flow cytometric analysis. […] FIG. 8.

A20 B lymphoma cells [1] = test: quantification of CD80-CSA molecules displayed per cell (Quantum-27 MESF kit); type: cell-based; details: 5 μM biotin, 100 ng protein
Experimental: Cells were stained with phycoerythrin (PE) conjugated anti-human CD80 antibody. The Quantum-27 MESF kit from Bangs Laboratories was used to estimate the number of CD80-CSA molecules per cell. Molecules of equivalent soluble fluorochrome (MESF) for the samples were calculated according to the calibration curve constructed by five MESF beads with varying MESF values (0, 727, 2737, 10110, 41738) using Cell Quest analysis program (Becton Dickinson Biosciences). The data for each sample was converted into MESF values. FIG. 10.

A20 B lymphoma cells [2] = test: in vivo engineering of solid A20 tumors (intratumoral biotin, then CD80-CSA); set-up: species or system Balb/c mice
Experimental: One million live A20 B lymphoma cells were injected subcutaneously to the right flank of naïve syngeneic Balb/c mice. When the tumor size reached 7-9 mm in diameter, 300 μL of 1 mM EZ-Link Sulfo-NHS-LC-Biotin in PBS was injected into the tumor, followed 24 hrs later by intratumoral injection of 40 μg of CD80-CSA fusion protein in 150 μL PBS. Tumor cells were harvested and analyzed 24 hrs after protein injection. Biotin levels were detected by streptavidin-APC and fusion protein levels were detected by an antibody against CD80. Cells from untreated tumors and biotinylated tumors were used as negative controls for biotin and CD80, respectively.

[3] = tested on: peripheral blood lymphocytes from healthy volunteers; test: MLTR assay with tumor cells engineered with CD80-CSA; type: cell-based, human; details: HEC-1-A endometrial cancer cell line engineered with CD80-CSA
A20 cells [4] = test: ex vivo co-display of fusion proteins on biotinylated A20 cells (flow cytometry); type: cell-based; details: 5 μM biotin, 100 ng/protein/10^6 cells
Experimental: as §1
A20 cells were biotinylated (5 μM) and then contacted with CD80-CSA and 4-1BBL-CSA fusion proteins at 100 ng/protein/10^6 cells, following procedures similar to those set forth above.

A20 cells [5] = test: effect of timing of CD80-CSA administration after biotinylation of A20 tumors; type: in vivo, BALB/c mice
Experimental: A similar protocol was followed to evaluate the effect of the timing of the CD80-CSA administration subsequent to biotinylation. 1×10^6 A20 cells were injected subcutaneously into the right back flank of naïve BALB/c mice. Tumor growth was monitored and measured using calipers three times a week. When the tumor size reached 7-9 mm average diameter, 300 μl of 5 mM biotin solution (EZ-Link Sulfo-NHS-LC-Biotin in PBS) was injected into the tumors. At 2, 4, 8 or 16 hours after biotin injection, biotinylation was assessed as described above and 50 μg of CD80-SA was administered by intratumoral injection. (Some animals were left untreated as negative controls.) Animals were euthanized 16 hours after CD80-SA injection. Tumors were processed into single cell suspensions, and fusion protein levels were detected by an antibody against CD80 using flow cytometry. The results (FIG. 16) show a greater percentage of biotinylated cells decorated when the fusion protein was administered 16 hours after biotin administration, with 62% of biotinylated cells being decorated, compared to 49%, 31% and 10% at 8, 4 and 2 hours post-biotin administration, respectively.

CD4^+ or CD8^+ T cells = test: proliferation of CFSE-labeled T cells against A20 cells decorated with 4-1BBL; type: cell-based, C57B/6 (H2-K^b) mice; details: 4:1 ratio, 4 days co-culture, flow cytometry
Experimental: CD4^+ and CD8^+ T cells were FACS-sorted from spleens and lymph nodes of naïve C57B/6 (H2-K^b) mice and were stained with carboxyfluorescein diacetate succinimidylester (CFSE). Briefly, cells were washed with PBS, incubated in 4 ml of 2.5 μM CFSE/1×10^6 cells for 7 minutes at room temperature. Cells were then incubated in two volumes of FBS for 1 min, and washed 2 times with PBS. A20 B lymphoma cells (H2-K^d) were washed in PBS and biotinylated using freshly prepared EZ-Link Sulfo-NHS-LC-Biotin in PBS (1 ml solution per 50×10^6 cells) for 30 min at room temperature. After washing with PBS, cells were irradiated at 10000 cGy. Biotinylated and irradiated A20 cells were incubated with CSA-4-1BBL (100 ng/1×10^6cells) or control protein CSA (38 ng/1×10^6 cells) in 5 ml tubes for 30 minutes in a cold room. After washing the cells extensively, some of the cells were stained with fluorochrome conjugated antibodies against 4-1BBL and streptavidin to detect the decoration, or with fluorochrome conjugated streptavidin to detect biotinylation. […]
Proliferation of T cells were determined using flow cytometry after staining cells with fluorochrome conjugated anti-CD4 or anti-CD8 antibodies.

| Molecule | t1/2 of persistence on the surface of splenocytes in vivo (splenocytes) [days] | display on the surface of tumor cells (LLC cells) | average number of molecules per cell (A20 B lymphoma cells [1]) | tumor cells positive for CD80 (A20 B lymphoma cells [2]; 40 μg intratumorally 24 hrs after biotin, 24 hrs after protein injection) [%] | biotin positive cells displaying protein (A20 B lymphoma cells [2]; I mM biotin followed by 40 μg 24 hrs later) [%] | proliferative response of peripheral blood lymphocytes [3] | display on the surface of tumor cells (A20 cells [4]) | biotinylated cells being decorated (A20 cells [5]; 50 μg intratumorally 2 hours after 5 mM biotin) [%] | biotinylated cells being decorated (A20 cells [5]; 50 μg intratumorally 4 hours after 5 mM biotin) [%] | biotinylated cells being decorated (A20 cells [5]; 50 μg intratumorally 8 hours after 5 mM biotin) [%] | biotinylated cells being decorated (A20 cells [5]; 50 μg intratumorally 16 hours after 5 mM biotin) [%] | proliferative response of T cells against decorated A20 cells (CD4^+ or CD8^+ T cells) [%] |
| --- | --- | --- | --- | --- | --- | --- | --- | --- | --- | --- | --- | --- |
| CD80-CSA: chimeric protein comprising the extracellular domain of human B7.1 (CD80) and core streptavidin (SEQ ID NO:4) (protein) SPVQLKGGSDLNMKLCILLAVVAFVGLSLGRSIHVTKEVKEVATLSCGHNVSVEELAQTRIYWQKEKKMVLTMMSGDMNIWPEYKNRTIFDITNNLSIVILALRPSDEGTYECVVLKYEKDAFKREHLAEVTLSVKADFPTPSISDFEIPTSNIRRIICSTSGGFPEPHLSWLENGEELNAINTTVSQDPETELYAVSSKLDFNMTTNHSFMCLIKYGHLRVNQTFNWNTTKQERSHHHHHHITGTWYNQLGSTFIVTAGADGALTGTYESAVGNAESRYVLTGRYDSAPATDGSGTALGWTVAWKNNYRNAHSATTWSGQYVGGAEARINTQWLLTSGATEANAWKSTLVGHDTFTKVKPSAASSRILQISSTVAAARV | > 10 | co-displayed on the surface of tumor cells at comparable levels | 118,000 molecules per cell | 81 | > 80 | potent proliferative responses | co-displayed on the surface of tumor cells at comparable levels | 10 | 31 | 49 | 62 |  |
| 4-1BBL-CSA: CSA-murine 4-1 BBL fusion protein (SEQ ID NOs 5 and 6) (protein) FMQLKGGSDLNMKLCILLAVVAFVGLSLGRSHHHHHHITGTWYNQLGSTFIVTAGADGALTGTYESAVGNAESRYVLTGRYDSAPATDGSGTALGWTVAWKNNYRNAHSATTWSGQYVGGAEARINTQWLLTSGATEANAWKSTLVGHDTFTKVKPSAASSEFRTEPRPALTITTSPNLGTRENNADQVTPVSHIGCPNTTQQGSPVFAKLLAKNQASLCNTTLNWHSQDGAGSSYLSQGLRYEEDKKELVVDSPGLYYVFLELKLSPTFTNTGHKVQGWVSLVLQAKPQVDDFDNLALTVELFPCSMENKLVDRSWSQLLLLKAGHRLSVGLRAYLHGAQDAYRDWELSYPNTTSFGLFLVKPDNPWE |  | co-displayed on the surface of tumor cells at comparable levels |  |  |  |  | co-displayed on the surface of tumor cells at comparable levels |  |  |  |  | 52.6 |
